Experimental data published in patent US20260285997 (published 2026).
Values joined by “and” are separate entries in the source; they are usually repeats but may differ in a detail not shown here. Identical values can stand only once. Like-named read-outs stand apart in the source and are kept apart here.

B1: V4 IgG (Anti-FLAG-M2-V4) (antibody, V domains shown)
VH: QVQLVQSGAEVKKPGASVKVSCKASGYSFTTYTIHWVRQAPGQGLEWIGYINPSSGYAAYNQKFQGRVTLTADKSTSTAYMELSSLRSEDTAVYYCAREKFYGYDYWGQGTTVTVSS
VL: DVVMTQSPDSLAVSLGERATINCKSSQSIVHRNGNTYLEWYQQKPGQPPKLLIYKVSNRFSGVPDRFSGSGSGTDFTLTISSLQAEDVAVYYCFQGSHVPYTFGGGTKLEIK
B2: V7 IgG (Anti-FLAG-M2-V7) (antibody, V domains shown)
VH: QVQLVQSGAEVKKPGASVKVSCKASGYSFTTYTMHWVRQAPGQGLEWMGYINPSSGYAAYNQKFQGRVTMTADKSTSTAYMELSSLRSEDTAVYYCAREKFYGYDYWGQGTTVTVSS
VL: DVVMTQSPDSLAVSLGERATINCKSSQSIVHRNGNTYLEWYQLKPGQPPKLLIYKVSNRFSGVPDRFSGSGSGTDFTLTISSLQAEDVAVYYCFQGSHVPYTFGGGTKLEIK
B3: BEAT 2a5 FLAG arm (antibody)
chain: QVQLVQSGAEVKKPGASVKVSCKASGYSFTTYTIHWVRQAPGQGLEWIGYINPSSGYAAYNQKFQGRVTLTADKSTSTAYMELSSLRSEDTAVYYCAREKFYGYDYWGQGTTVTVSSGGGGSGGGGSGGGGSGGGGASDVVMTQSPDSLAVSLGERATINCKSSQSIVHRNGNTYLEWYQQKPGQPPKLLIYKVSNRFSGVPDRFSGSGSGTDFTLTISSLQAEDVAVYYCFQGSHVPYTFGGGTKLEIK
B4: BEAT 2a2 FLAG arm (antibody)
chain: DVVMTQSPDSLAVSLGERATINCKSSQSIVHRNGNTYLEWYQQKPGQPPKLLIYKVSNRFSGVPDRFSGSGSGTDFTLTISSLQAEDVAVYYCFQGSHVPYTFGGGTKLEIKGGGGSGGGGSGGGGSQVQLVQSGAEVKKPGASVKVSCKASGYSFTTYTIHWVRQAPGQGLEWIGYINPSSGYAAYNQKFQGRVTLTADKSTSTAYMELSSLRSEDTAVYYCAREKFYGYDYWGQGTTVTVSS
B5: BEAT 2a6 FLAG arm (antibody)
chain: QVQLVQSGAEVKKPGASVKVSCKASGYSFTTYTIHWVRQAPGQGLEWIGYINPSSGYAAYNQKFQGRVTLTADKSTSTAYMELSSLRSEDTAVYYCAREKFYGYDYWGQGTTVTVSSGGGGSGGGGSGGGGSGGGGASDVVMTQSPDSLAVSLGERATINCKSSQSIVHRNGNTYLEWYQQKPGQPPKLLIYKVSNRFSGVPDRFSGSGSGTDFTLTISSLQAEDVAVYYCFQGSHVPYTFGGGTKLEIK
B6: V7 scFv (anti-FLAG) (antibody)
chain: DVVMTQSPDSLAVSLGERATINCKSSQSIVHRNGNTYLEWYQLKPGQPPKLLIYKVSNRFSGVPDRFSGSGSGTDFTLTISSLQAEDVAVYYCFQGSHVPYTFGGGTKLEIKGGGGSGGGGSGGGGSQVQLVQSGAEVKKPGASVKVSCKASGYSFTTYTMHWVRQAPGQGLEWMGYINPSSGYAAYNQKFQGRVTMTADKSTSTAYMELSSLRSEDTAVYYCAREKFYGYDYWGQGTTVTVSS
B7: BEAT 2a3 FLAG arm (antibody)
chain: DVVMTQSPDSLAVSLGERATINCKSSQSIVHRNGNTYLEWYQQKPGQPPKLLIYKVSNRFSGVPDRFSGSGSGTDFTLTISSLQAEDVAVYYCFQGSHVPYTFGGGTKLEIKGGGGSGGGGSGGGGSQVQLVQSGAEVKKPGASVKVSCKASGYSFTTYTIHWVRQAPGQGLEWIGYINPSSGYAAYNQKFQGRVTLTADKSTSTAYMELSSLRSEDTAVYYCAREKFYGYDYWGQGTTVTVSS
B8: Parental anti-FLAG (chimeric) (antibody, V domains shown)
VH: QVQLQQSAGELARPGASVKMSCKASGYSFTTYTIHWVKQRPGQGLEWIGYINPSSGYAAYNQNFKDETTLTADKSSSTAYMQLSSLTSEDSAVYYCAREKFYGYDYWGQGTTLTVSS
VL: DVLMTQLPLSLPVSLGDQASISCRSSQSIVHRNGNTYLEWYLLKPGQSPKLLIYKVSNRFSGVPDRFSGSGSGTDFTLKISRVEAEDLGVYYCFQGSHVPYTFGGGTKLEIK
B9: BEAT 2a8 FLAG arm (antibody)
chain: QVQLVQSGAEVKKPGASVKVSCKASGYSFTTYTIHWVRQAPGQGLEWIGYINPSSGYAAYNQKFQGRVTLTADKSTSTAYMELSSLRSEDTAVYYCAREKFYGYDYWGQGTTVTVSSGGGGSGGGGSGGGGSGGGGASDVVMTQSPDSLAVSLGERATINCKSSQSIVHRNGNTYLEWYQQKPGQPPKLLIYKVSNRFSGVPDRFSGSGSGTDFTLTISSLQAEDVAVYYCFQGSHVPYTFGGGTKLEIK
B10: BEAT 2a4 FLAG arm (antibody)
chain: DVVMTQSPDSLAVSLGERATINCKSSQSIVHRNGNTYLEWYQQKPGQPPKLLIYKVSNRFSGVPDRFSGSGSGTDFTLTISSLQAEDVAVYYCFQGSHVPYTFGGGTKLEIKGGGGSGGGGSGGGGSQVQLVQSGAEVKKPGASVKVSCKASGYSFTTYTIHWVRQAPGQGLEWIGYINPSSGYAAYNQKFQGRVTLTADKSTSTAYMELSSLRSEDTAVYYCAREKFYGYDYWGQGTTVTVSS
B11: V4 scFv (anti-FLAG) (antibody)
chain: DVVMTQSPDSLAVSLGERATINCKSSQSIVHRNGNTYLEWYQQKPGQPPKLLIYKVSNRFSGVPDRFSGSGSGTDFTLTISSLQAEDVAVYYCFQGSHVPYTFGGGTKLEIKGGGGSGGGGSGGGGSQVQLVQSGAEVKKPGASVKVSCKASGYSFTTYTIHWVRQAPGQGLEWIGYINPSSGYAAYNQKFQGRVTLTADKSTSTAYMELSSLRSEDTAVYYCAREKFYGYDYWGQGTTVTVSS

How the values were obtained:
FLAG-BAP [1] = target: T1, FLAG-BAP (FLAG tag fused to bacterial alkaline phosphatase); test: SPR
FLAG-BAP [2] = target: T1, FLAG-BAP; test: SPR; remark: listed apart in the source
FLAG tag antigen [3] = target: T2, FLAG tag antigen; test: SPR bivalent
T2 chain: DYKDDDDK

FLAG tag antigen [4] = target: T2, FLAG tag antigen; test: SPR

Row | Binder | Kd (FLAG-BAP [2]) | other results
1 | B1 | 34.3 nM and 20.7 nM | Kd (FLAG-BAP [1]): 34.3 nM and 20.7 nM; Kd (FLAG tag antigen [3]): 0.91 nM
2 | B2 | 27.7 nM and 23.2 nM | Kd (FLAG-BAP [1]): 23.2 nM and 27.7 nM; Kd (FLAG tag antigen [3]): 1.3 nM
3 | B3 | 19.5 nM and 18.1 nM | –
4 | B4 | 51.9 nM and 21.7 nM | –
5 | B5 | 35.1 nM and 32.6 nM | –
6 | B6 | – | Kd (FLAG tag antigen [4]): 15 nM
7 | B7 | 5.13 nM and 2.63 nM and 3.04 nM | –
8 | B8 | – | Kd (FLAG tag antigen [3]): 0.96 nM
9 | B9 | 10.8 nM and 9.09 nM | –
10 | B10 | 13.3 nM and 17 nM | –
11 | B11 | – | Kd (FLAG tag antigen [4]): 22 nM
